The test has as its target OTULIN-diUb adduct (endogenous OTULIN coupled to bio-Ub_(G76Dha)-Ub) (human (endogenous in HEK293 and Jurkat T cells) | not stated) (UniProt Q96BN8). The test is described as follows: pull-down; biotin-PD of the OTULIN-diUb adduct formed in extracts of transfected HEK293 cells or of Jurkat T cells (with or without TNF-α, 20 ng/mL) on streptavidin agarose, three washes with co-IP buffer; western blot of eluate, input and supernatant.

On to “endogenous SHARPIN (from UniProt Q9H0F6 1-387) (natural protein)”, for which the percent of the protein removed from the extract by the biotin-PD came out at 25%.
To “endogenous HOIL-1 (from UniProt Q9BYM8 1-510) (natural protein)” belongs 25%.
Turning to “endogenous HOIP (from UniProt Q96EP0 1-1072) (natural protein)”, the percent of the protein removed from the extract by the biotin-PD amounted to 25%.
